This is an account of results in patent publication US20030171279A1.

The target in series [1] is mouse BAD (murine BAD pro-apoptotic polypeptide) (mouse) (UniProt Q61337). Description: cell-based or functional assay.
In series [2] the target is T1, mouse BAD (murine BAD pro-apoptotic polypeptide).
T1 chain: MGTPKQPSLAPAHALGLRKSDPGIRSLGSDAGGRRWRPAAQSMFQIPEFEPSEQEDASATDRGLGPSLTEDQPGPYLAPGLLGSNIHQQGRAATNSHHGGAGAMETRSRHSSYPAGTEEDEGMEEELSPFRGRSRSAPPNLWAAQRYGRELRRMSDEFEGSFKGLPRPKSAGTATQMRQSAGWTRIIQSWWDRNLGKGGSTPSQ

The target in series [3] is T2, HSV-1 UL34 protein, P10218.
T2 chain: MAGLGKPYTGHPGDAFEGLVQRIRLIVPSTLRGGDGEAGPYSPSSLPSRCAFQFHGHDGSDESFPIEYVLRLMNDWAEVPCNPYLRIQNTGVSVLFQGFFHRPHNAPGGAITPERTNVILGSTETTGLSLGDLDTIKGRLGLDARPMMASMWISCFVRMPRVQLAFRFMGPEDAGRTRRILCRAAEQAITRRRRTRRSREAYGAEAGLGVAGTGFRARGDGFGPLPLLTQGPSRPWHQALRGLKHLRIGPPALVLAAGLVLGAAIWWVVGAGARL

Molecule “herpes simplex virus 1 (HSV-1) US3 protein kinase (from UniProt P04413 1-481) (enzyme)” gave a DEVDase activity (fold increase over mock-infected cells) (fold increase) in series [1] of less than 2.

B1: herpes simplex virus 1 (HSV-1) US3 protein kinase (protein)
chain: MACRKFCRVYGGQGRRKEEAVPPETKPSRVFPHGPFYTPAEDACLDSPPPETPKPSHTTPPSEAERLCHLQEILAQMYGNQDYPIEDDPSADAADDVDEDAPDDVAYPEEYAEELFLPGDATGPLIGANDHIPPPCGASPPGIRRRSRDEIGATGFTAEELDAMDREAARAISRGGKPPSTMAKLVTGMGFTIHGALTPGSEGCVFDSSHPDYPQRVIVKAGWYTSTSHEARLLRRLDHPAILPLLDLHVVSGVTCLVLPKYQADLYTYLSRRLNPLGRPQIAAVSRQLLSAVDYIHRQGIIHRDIKTENIFINTPEDICLGDFGAACFVQGSRSSPFPYGIAGTIDTNAPEVLAGDPYTTTVDIWSAGLVIFETAVHNASLFSAPRGPKRGPCDSQITRIIRQAQVHVDEFSPHPESRLTSRYRSRAAGNNRPPYTRPAWTRYYKMDIDVEYLVCKALTFDGALRPSAAELLCLPLFQQK
On to B1, for which, in series [2], the “DNA fragmentation (agarose gel)” value was “DNA fragmentation was not observed in extracts of Bac-Bad treated cells that had been previously exposed to Bac-US3”; the “cleavage of poly(ADP-ribose) polymerase (Mr 85,000 PARP cleavage product, immunoblot)” value is recorded as “readily detected in mock- or in Bac-WT-infected cells that had been exposed to Bac-Bad, but not in Bac-US3 infected cells that had been exposed to Bac-Bad”; the “electrophoretic mobility and total amount of BAD (immunoblot with anti-BAD antibody)” value is “migrated more slowly and was significantly reduced in amount relative to those detected in lysates of cells exposed to BAC-WT or mock-infected prior to exposure to Bac-BAD”; the “levels of BAD phosphorylated at ser136, ser155 and ser112 (immunoblot with phospho-specific antibodies)” value was “The levels of BAD phosphorylated at ser136, ser155, and ser112 present in cells mock infected were similar to those present in cells infected with Bac-WT or Bac-US3”. Also, in series [3], the “processing of UL34 protein (apparent Mr 30,000 against 33,000; 32P labelling and UL34 immunoblot)” value is recorded as “the fully processed UL34 protein was present in cells infected with HSV-1(F) but not cells infected with 120FR or R7041”.
